These results are taken from PMC7356742.

For data set [1], the system named is RsuA G127C-Cy5 (Escherichia coli). The experiment in a line: FRET. As to conditions: 4 mM Mg2+, FRET: 80 mM K-Hepes pH 7.6, 330 mM KCl, 0-20 mM MgCl2, 2 nM RNA folded at 37 C. Filter binding: 80 mM K-Hepes pH 7.6, 50 mM KCl, 4 mM MgCl2, 6 mM …; for binding signal: scale: fold higher affinity than wild type.
Data set [2] relates to RsuAΔN (S4-like domain truncation) (Escherichia coli). Briefly: filter binding. The conditions noted are these: 4 mM Mg2+; fit 0-15 uM; FRET: 80 mM K-Hepes pH 7.6, 330 mM KCl, 0-20 mM MgCl2, 2 nM RNA folded at 37 C. Filter binding: 80 mM K-Hepes pH 7.6, 50 mM KCl, 4 mM MgCl2, 6 mM ….
Data set [3] deals with RsuA wild type (Escherichia coli). The experiment in a line: filter binding. The conditions noted are these: 4 mM Mg2+; fit 0-2 uM, bound fraction falls above 2 uM; FRET: 80 mM K-Hepes pH 7.6, 330 mM KCl, 0-20 mM MgCl2, 2 nM RNA folded at 37 C. Filter binding: 80 mM K-Hepes pH 7.6, 50 mM KCl, 4 mM MgCl2, 6 mM ….

pKd: −log10 of the molar value. A value given as a limit tells only on which side of the number the result lay.

In data set [1], 16S 5'-domain C507G displayed a binding signal (fold lower Kd than wild type (3.9 nM)) of 390.

16S 5'-domain G505C: the binding signal in data set [1] is over 30.

Regarding 16S 5'-domain G505C:G506C, the binding signal in data set [1] was over 30.

As a reminder, the pKd is the Kd on a negative log10 scale, so that one unit is a factor of ten. Regarding 16S 5'-domain rRNA (filter binding), the values for the negative logarithm of the Kd (pKd) in data set [2] and in data set [3] were 7.24 and 7.92, respectively.
